Laboratory results reported in US20260043020A1, “BINDING MEMBERS WITH ALTERED DIVERSITY SCAFFOLD DOMAINS” (priority 2016, published 2026).

Legend:
human Kv 1.3 (human) = human Kv 1.3 (human) (UniProt P22001); test: cell-based or functional assay
β-galactosidase = test: monoclonal phage TRF ELISA on B-galactosidase
trypsin [1] = test: monoclonal phage TRF ELISA
trypsin [2] = test: phage TRF ELISA; GlyAla (Pro3Gly, Arg4Ala) mutant against the clone
human ASIC1a (human) = biological target: T1, human ASIC1a (human) (UniProt P78348); test: cell-based or functional assay
T1 sequence (looked up): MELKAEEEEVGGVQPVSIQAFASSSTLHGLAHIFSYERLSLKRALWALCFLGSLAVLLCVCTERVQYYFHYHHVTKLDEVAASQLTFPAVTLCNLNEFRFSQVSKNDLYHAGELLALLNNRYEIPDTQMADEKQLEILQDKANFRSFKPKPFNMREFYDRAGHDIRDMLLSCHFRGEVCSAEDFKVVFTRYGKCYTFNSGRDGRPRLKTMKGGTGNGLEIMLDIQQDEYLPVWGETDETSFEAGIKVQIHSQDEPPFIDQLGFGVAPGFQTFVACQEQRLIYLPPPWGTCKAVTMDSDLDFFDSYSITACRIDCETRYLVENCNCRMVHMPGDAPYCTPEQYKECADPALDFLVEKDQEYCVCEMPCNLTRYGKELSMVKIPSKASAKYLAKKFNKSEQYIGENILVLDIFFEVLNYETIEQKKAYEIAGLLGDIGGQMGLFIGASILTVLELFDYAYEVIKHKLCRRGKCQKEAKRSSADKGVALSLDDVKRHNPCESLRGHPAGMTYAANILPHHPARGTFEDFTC

trypsin [3] = test: flow cytometry, biotinylated trypsin with streptavidin-APC
trypsin [4] = test: flow cytometry of HEK293 cells 15 days post transfection, biotinylated trypsin/streptavidin-APC (FL4) against anti-Fc-PE (FL2)

Chain of human Kv 1.3 (human) (P22001 whole entry): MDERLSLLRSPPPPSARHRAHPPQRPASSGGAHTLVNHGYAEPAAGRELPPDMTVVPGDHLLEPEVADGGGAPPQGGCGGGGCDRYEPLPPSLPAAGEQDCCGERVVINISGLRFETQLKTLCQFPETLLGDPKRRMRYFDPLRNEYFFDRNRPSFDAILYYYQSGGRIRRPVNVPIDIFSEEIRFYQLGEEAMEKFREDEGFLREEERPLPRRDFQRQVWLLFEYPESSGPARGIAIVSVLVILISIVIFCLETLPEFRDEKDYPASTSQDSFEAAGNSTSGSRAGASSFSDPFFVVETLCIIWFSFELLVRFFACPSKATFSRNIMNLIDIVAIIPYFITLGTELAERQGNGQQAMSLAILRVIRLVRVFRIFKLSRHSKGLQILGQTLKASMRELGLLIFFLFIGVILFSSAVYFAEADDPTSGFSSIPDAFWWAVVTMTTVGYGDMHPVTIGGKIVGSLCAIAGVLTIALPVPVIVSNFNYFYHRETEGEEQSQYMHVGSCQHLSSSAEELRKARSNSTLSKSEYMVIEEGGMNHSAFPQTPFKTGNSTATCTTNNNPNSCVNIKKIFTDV
Chain of β-galactosidase (P00722 2-1024): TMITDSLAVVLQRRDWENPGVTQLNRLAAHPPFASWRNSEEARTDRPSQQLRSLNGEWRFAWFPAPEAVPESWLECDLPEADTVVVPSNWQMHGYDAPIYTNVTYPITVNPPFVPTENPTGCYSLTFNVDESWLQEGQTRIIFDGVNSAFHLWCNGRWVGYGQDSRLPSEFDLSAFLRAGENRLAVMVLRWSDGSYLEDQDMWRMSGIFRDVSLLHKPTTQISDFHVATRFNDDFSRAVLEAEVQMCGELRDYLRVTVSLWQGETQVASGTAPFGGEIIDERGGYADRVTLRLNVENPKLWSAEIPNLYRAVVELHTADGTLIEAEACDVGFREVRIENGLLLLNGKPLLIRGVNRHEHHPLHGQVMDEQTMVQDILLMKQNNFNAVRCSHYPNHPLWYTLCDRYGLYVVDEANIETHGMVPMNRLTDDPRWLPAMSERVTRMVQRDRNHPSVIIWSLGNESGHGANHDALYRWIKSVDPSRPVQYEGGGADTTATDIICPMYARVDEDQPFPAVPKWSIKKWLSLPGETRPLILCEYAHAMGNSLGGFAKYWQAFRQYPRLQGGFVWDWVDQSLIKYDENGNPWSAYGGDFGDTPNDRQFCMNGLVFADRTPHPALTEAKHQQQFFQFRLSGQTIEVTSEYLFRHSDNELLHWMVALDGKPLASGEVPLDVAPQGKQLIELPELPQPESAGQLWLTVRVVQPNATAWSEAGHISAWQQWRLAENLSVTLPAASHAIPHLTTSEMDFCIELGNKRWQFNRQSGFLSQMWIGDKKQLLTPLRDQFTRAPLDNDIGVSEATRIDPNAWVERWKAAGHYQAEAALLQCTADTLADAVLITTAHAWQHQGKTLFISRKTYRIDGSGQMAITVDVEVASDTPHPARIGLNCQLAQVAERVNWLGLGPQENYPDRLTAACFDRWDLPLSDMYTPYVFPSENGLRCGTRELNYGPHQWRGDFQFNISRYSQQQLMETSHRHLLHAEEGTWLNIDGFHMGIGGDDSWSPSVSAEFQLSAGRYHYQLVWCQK

B1: KB_A07_Shk (antibody, V domains shown)
VH: EVQLVESGGGLVRPGGSLRLSCAASGFTFSSYAMSWVRQAPGKGLEWVSAISGSGGSTYYADSVKGRFTISRDNTKNSLYLQMTSLRADDTAFYYCVKDFGPGYGTGWFDYWGPGTLVTVSS
VL: NWYQQKPGKAPKLLIYAAGVRSCIDTIPKSRCTAFQCKHSMKYRLSFCRKTCGTCSRSGVPSRFSGSGSGTDFTLTISSLQPEDFATYYCQQGASPPYTFGQGTKVEIKR
IC50, inhibition of huKv1.3 currents (QPatch, CHO cells) (human Kv 1.3 (human)): 40 nM

B2: KB_A07_Kaliotoxin (KTX) (antibody, V domains shown)
VH: B1 VH
VL: DIQMTQSPSSLSASVGDRVTITCRASQSISSYLNWYQQKPGKAPKLLIYAAGVGVEINVKCSGSPQCLKPCKDAGMRFGKCMNRKCHCTPKSRSGVPSRFSGSGSGTDFTLTISSLQPEDFATYYCQQGASPPYTFGQGTKVEIKR
IC50, inhibition of huKv1.3 currents (QPatch, CHO cells) (human Kv 1.3 (human)): 900 nM

B3: KB_A07 MoKa-1 fusion (antibody, V domains shown)
VH: B1 VH
VL: DIQMTQSPSSLSASVGDRVTITCRASQSISSYLNWYQQKPGKAPKLLIYAAGVINVKCSLPQQCIKPCKDAGMRFGKCMNKKCRCYSSRSGVPSRFSGSGSGTDFTLTISSLQPEDFATYYCQQGASPPYTFGQGTKVEIKRT
IC50, inhibition of huKv1.3 currents (QPatch, CHO cells) (human Kv 1.3 (human)): > 10000 nM

B4: KB_A12 Kaliotoxin (KTX) fusion (antibody)
VH: B1 VH
VL: QSVLTQPPSVSEAPRQRVTITCSGSSSNIGNNAVNWYQQLPGKAPKLLIYAAGRGVEINVKCSGSPQCLKPCKDAGMRFGKCMNRKCHCTPKANSGVSDRFSAAKSGTSASLAINGLRSEDEADYYCAAWDDSLNGYVFGTGTKLTVLGQP
IC50, inhibition of huKv1.3 currents (QPatch, CHO cells) (human Kv 1.3 (human)): > 10000 nM

B5: KB A12_B-gal_F07 (scFv, V domains shown)
VH: B1 VH
VL: AVNWYQQLPGKAPKLLIYAAGRCRTTANVRRHCKQDSDCLAGCVCGPNGFCGANSGVSDRFSAAKSGTSASLAINGLRSEDEADYYCAAWDDSLNGYVFGTGTKLTVLG
TRF signal (β-galactosidase): 246000

B6: KB_B12 (scFv, V domains shown)
VH: B1 VH
VL: TQPPSVSEAPRQRVTITCGERPCPRILMRCKQDSDCLAGCVCGPNGFCGANNWYQQLPGSSPTTVIYEDNQRPSGVPDRFSGSIDSSSNSASLTISGLKTEDEADYYCQSYDSSNQVFGGGTKVTVLG
trypsin binding signal (FU) (trypsin [1]): 17400 FU
% reduction in binding signal (trypsin [2]): 97%

B7: KB_B11 (scFv, V domains shown)
VH: B1 VH
VL: TQPPSVSEAPRQRVTITCGSRPCPRILMRCKQDSDCLAGCVCGPNGFCGSHNWYQQLPGSSPTTVIYEDNQRPSGVPDRFSGSIDRSSNSASLTISGLKTEDEADYYCQSYDSSNHRVVFGGGTKLTVLG
trypsin binding signal (FU) (trypsin [1]): 10300 FU
% reduction in binding signal (trypsin [2]): 100%

B8: KB_A07 IgG1 (EETI-II fusion, isotype control) (antibody, V domains shown)
VH: B1 VH
VL: YLNWYQQKPGKAPKLLIYAAGVCPRILMRCKQDSDCLAGCVCGPNGFCGSRSGVPSRFSGSGSGTDFTLTISSLQPEDFATYYCQQGASPPYTFGQGTKVEIKR
IC50, inhibition of huKv1.3 currents (QPatch, CHO cells) (human Kv 1.3 (human)): > 10000 nM
% ASIC1a current remaining, 6 µM KnotBody (QPatch, HEK293 cells) (human ASIC1a (human)): 70.9%

B9: KB_A07 scFv-Fc, membrane anchored on HEK293 cells (Fc fusion)
VH: B1 VH
VL: DIQMTQSPSSLSASVGDRVTITCRASQSISSYLNWYQQKPGKAPKLLIYAAGVCPRILMRCKQDSDCLAGCVCGPNGFCGSRSGVPSRFSGSGSGTDFTLTISSLQPEDFATYYCQQGASPPYTFGQGTKVEIKRT
% of transfected HEK293 cells dual stained for Fc and trypsin (trypsin [3]): 34%
cells in Q1 (trypsin/streptavidin-APC positive, anti-Fc-PE negative) (trypsin [4]): 3.65%
cells in Q2 (anti-Fc-PE positive and trypsin/streptavidin-APC positive) (trypsin [4]): 33.8%
cells in Q3 (anti-Fc-PE positive, trypsin/streptavidin-APC negative) (trypsin [4]): 11.1%

B10: KB_A12 IgG1 (EETI-II fusion, isotype control) (antibody, V domains shown)
VH: B1 VH
VL: AVNWYQQLPGKAPKLLIYAAGRCPRILMRCKQDSDCLAGCVCGPNGFCGANSGVSDRFSAAKSGTSASLAINGLRSEDEADYYCAAWDDSLNGYVFGTGTKLTVLG
IC50, inhibition of huKv1.3 currents (QPatch, CHO cells) (human Kv 1.3 (human)): > 10000 nM
% ASIC1a current remaining, 3.3 µM KnotBody (QPatch, HEK293 cells) (human ASIC1a (human)): 67.4%

B11: KB_B10 (scFv, V domains shown)
VH: B1 VH
VL: QSVLTQLPSVSEAPRQRVTITCGRAMCPRILMRCKQDSDCLAGCVCGPNGFCGTGNWYQQHPGKAPKLIIFDVSKRPSGVPDRFSASKSGNTASLTISGLQAEDEADYYCNSYTSSNTWVFGGGTQLTVLG
trypsin binding signal (FU) (trypsin [1]): 9270 FU
% reduction in binding signal (trypsin [2]): 100%

B12: KB_A12 scFv-Fc, membrane anchored on HEK293 cells (Fc fusion)
VH: B1 VH
VL: QSVLTQPPSVSEAPRQRVTITCSGSSSNIGNNAVNWYQQLPGKAPKLLIYAAGRCPRILMRCKQDSDCLAGCVCGPNGFCGANSGVSDRFSAAKSGTSASLAINGLRSEDEADYYCAAWDDSLNGYVFGTGTKLTVLGQP
% of transfected HEK293 cells dual stained for Fc and trypsin (trypsin [3]): 11%
cells in Q1 (trypsin/streptavidin-APC positive, anti-Fc-PE negative) (trypsin [4]): 1.54%
cells in Q2 (anti-Fc-PE positive and trypsin/streptavidin-APC positive) (trypsin [4]): 11.2%
cells in Q3 (anti-Fc-PE positive, trypsin/streptavidin-APC negative) (trypsin [4]): 3.78%

B13: KB_A12_Shk (antibody, V domains shown)
VH: B1 VH
VL: NWYQQLPGKAPKLLIYAAGRRSCIDTIPKSRCTAFQCKHSMKYRLSFCRKTCGTCANSGVSDRFSAAKSGTSASLAINGLRSEDEADYYCAAWDDSLNGYVFGTGTKLTVLG
IC50, inhibition of huKv1.3 currents (QPatch, CHO cells) (human Kv 1.3 (human)): 20 nM

B14: KB_C10 (scFv, V domains shown)
VH: B1 VH
VL: AVNWYQQLPGKAPKLLIYAAGPCPRILMRCKQDSDCLAGCVCGPNGFCGADSGVSDRFSGSKSGTSASLAITGLQAEDEGDYYCAAWDDSLNGLVFGGGTKVTVLG
trypsin binding signal (FU) (trypsin [1]): 119000 FU
% reduction in binding signal (trypsin [2]): 100%
